# Results from PMC8130932 (PLoS Pathogens, 2021).
# B1: FD 5D (antibody, V domains shown)
# VH: EVQLVESGGGLVQPGGSLRLSCAASGFTFSSYSMNWVRQAPGKGLEWVSYISSSSSTIYYADPVKGRFTISRDNAKNSLYLQMNSLRAEDTAVYYCASPGGITAAGTSVLFGYYGMDVWGQGTMVTVSS
# VL: not shown
# notes: source: HEK293T, transfected; culture supernatant or purified
# B2: FJ 10B (antibody, V domains shown)
# VH: QVQLVQSGAEVKKPGESLRISCKGSGYSFTSYWISWVRQMPGKGLEWMGRIDPSDSYTNYSPSFQGHVTISADKSISTAYLQWSSLKASDTAMYYCARLDPRYGPDYYGMDVWGQGTTVTVSS
# VL: AIRMTQSPSSLSASVGDRVTITCRASQSISSYLNWYQQKPGKAPKLLIHAASSLQSGVPSRFSGSGSGTDFTLTMSSLQPEDFATYYCQQSYSTPLTFGGGTKVEIR
# notes: as for B1
# B3: FI 4A (antibody, V domains shown)
# VH: EVQLVESGGGLVKPGGSLRLSCAASGFTFSRFSMNWVRQAPGKGLEWVSSISSSGSYIYFADSVKGRFTISRDNAKNSLYLQMNSLRAEDTAIYYCATYLFGDSHTYWGQGTLVTVSS
# VL: QSVLTQPHSVSESPGKTVTISCTGSSGSIASNYVQWYQQRPGSAPTTVIYEDNQRPSGVPDRFSGSIDSSSNSASLTISGLKTEDEADYYCQSYDSSNLHWVFGGGTKLTVL
# notes: as for B1
# B4: FD 5E (antibody, V domains shown)
# VH: EVQLVESGGVVVQPGGSLRLSCAASGFTFDDYAMHWVRQAPGKGLEWVSLISWDGGSTYYADSVKGRFTISRDNSKNSLYLQMNSLRAEDTALYYCAKDSVRFRYYYGMDVWGQGTTVTVSS
# VL: EIVLTQSPATLSLSPGERATLSCRASQSVSSYLAWYQQKPGQAPRLLIYDASNRATGIPARFSGSGSGTDFTLTISSLEPEDFAVYYCQQRSNWPLTFGPGTKVDIK
# notes: as for B1
# B5: EW 9B (antibody, V domains shown)
# VH: EVQLVQSGAEVKKPGASVKVSCKASGYTFTSYYMHWVRQAPGQGLEWMGIINPSGGSTSYAQKFQGRVTMTRDTSTSTVYMELSSLRSEDTAVYYCAREDGVVPAANLMISLEDYYYYGMDVWGQGTTVTVSS
# VL: EIVLTQSPATLSLSPGERATLSCRASQSVSSYLAWYQQKPGQAPRLLIYDASNRATGIPARFSGSGSGTDFTLTISSLEPEDFAVYYCQQRSNWPLTFGGGTKVDIK
# notes: as for B1
# B6: FM 7B (antibody, V domains shown)
# VH: EVQLVQSGAEVKKPGASVKVSCKASGYTFTSYAMHWVRQAPGQRLEWMGWINTGNGNTKYSQKFQGRVTITRDTSASTAYMELSSLRSEDTAVYYCARDPTYCSSTSCYPFSWFDPWGQGTLVTVSS
# VL: NFMLTQPPSVSVAPGQTARITCGGNNIGSKSVHWYQQKPGQAPVLVVYDDSDRPSGIPERFSGSNSGNTATLTISRVEAGDEADYYCQVWDSTGDHSWVFGGGTKLTVL
# notes: as for B1
# B7: FD 11C (antibody, V domains shown)
# VH: EVQLLESGPGLVKPSETLSLTCTVSGGSISSSSYYWGWIRQPPGKGLEWIGSIYYSGSTYYNPSLKSRVTISVDTSKNQFSLKLSSVTAADTAVYYCAREYYYGSETKKYYYYYGMDVWGQGTTVTVSS
# VL: not shown
# notes: as for B1
# B8: FD 11A (antibody, V domains shown)
# VH: EVQLVESGGGVVQPGRSLRLSCAASGFTFSSYGMHWVRQAPGKGLEWVAVIWYDGSNKYYADSVKGRFTISRDNSKNTLYLQMNSLRAEDTAVYYCAKGPDILTGYYNYYYYGMDVWGQGTMVTVSS
# VL: QSVLTQPPSVSGAPGQRVTISCTGSSSNIGAGYDVHWYQQLPGTAPKLLIYGNSNRPSGVPDRFSGSKSGTSASLAITGLQAEDEADYYCQSYDSSLSGFYVVFGGGTKLTVL
# notes: as for B1
# B9: FG 7A (antibody, V domains shown)
# VH: EVQLVESGGGVVQPGRSLRLSCAASGFTFSSYAMHWVRQAPGKGLEWVAVISYDGSNKYYADSVKGRFTISRDNSKNTLYLQMNSLRAEDTAVYYCARSHSGSYRASLDYWGQGTTVTVSS
# VL: not shown
# notes: as for B1
# B10: FD 1D (antibody, V domains shown)
# VH: EVQLVESGGGVVQPGRSLRLSCAASGFTFSSYAMHWVRQAPGKGLEWVAVISYDGSNKYYADSVKGRFTISRDNSKNTLYLQMNSLRAEDTAVYYCARAGSGSYLNWFDPWGQGTLVTVSS
# VL: EIVLTQSPATLSLSPGERATLSCRASQSVSSYLAWYQQKPGQAPRLLIYDASNRATGIPARFSGSGSGTDFTLTISSLEPEDFAVYYCQQRSNWPITFGQGTRLEIK
# notes: as for B1
# B11: FD 7C (antibody, V domains shown)
# VH: QLQLQESGPGLVKPSETLSLTCTVSGGSISSYYWSWIRQPPGKGLEWIGYIYYSGSTNYNPSLKSRVTISVDTSKNQFSLKLSSVTAADTAVYYCARDYRFGELFGRFAWFDPWGQGTLVTVSS
# VL: not shown
# notes: as for B1
# B12: FD 7D (antibody, V domains shown)
# VH: EVQLVESGAEVKKPGESLRISCKGSGYSFTSYWISWVRQMPGKGLEWMGRIDPSDSYTNYSPSFQGHVTISADKSISTAYLQWSSLKASDTAMYYCARHSDCSSTSCYFVDAFDIWGQGTMVTVSS
# VL: not shown
# notes: as for B1
# B13: FD 11D (antibody, V domains shown)
# VH: EVQLVESGGGVVQPGRSLRLSCAASGFTFSSYGMHWVRQAPGKGLEWVAVISYDGSNKYYADSVKGRFTISRDNSKNTLYLQMNSLRAEDTAVYYCAKEGAGSGWYRHHKPGYYFDYWGQGTLVTVSS
# VL: not shown
# notes: as for B1
# B14: EY 6A (antibody, V domains shown)
# VH: EVQLVESGGGVVQPGRSLRLSCAASAFTFSSYDMHWVRQAPGKGLEWVAVISYDGSNKYYADSVKGRFTISRDNSKNTLYLQMNSLRAEDTAVYYCAKDGGKLWVYYFDYWGQGTLVTVSS
# VL: not shown
# notes: as for B1
# B15: EZ 7B (antibody, V domains shown)
# VH: EVQLVESSPGLVKPSETLSLTCTVSGGSISSYYWSWIRQPPGKGLEWIGYIYYSGSTNYNPSLKSRVTISVDTSKNQFSLKLSSVTAADTAVYYCARRVFGPVLPSKLGGSYWGGGAFDIWGQGTMVTVSS
# VL: not shown
# notes: as for B1
# B16: FN 12A (antibody, V domains shown)
# VH: QVQLVQSGAEVKKPGSSVKVSCKASGGTFSSYAISWVRQAPGQGLEWMGRIIPILGIANYAQKFQGRVTITADKSTSTAYMELSSLRSEDTAVYYCARSGCSSTSCPSNLYYYYYGMDVWGQGTTVTVSS
# VL: QSVLTQPPSVSAAPGQKVTISCSGSSSNIGNNYVSWYQQLPGTAPKLLIYDNNKRPSGIPDRFSGSKSGTSATLGITGLQTGDEADYYCGTWDSSLSALVFGGGTKLTVL
# notes: as for B1
# B17: FM 1A (antibody, V domains shown)
# VH: EVQLLESGGGVVQPGRSLRLSCAASGFTFSSYGMHWVRQAPGKGLEWVAVIWYDGSNKYYADSVKGRFTISRDNSKNTLYLQMNSLRAEDTAVYYCAREGAVGATRGFDYWGQGTLVTVSS
# VL: SYELTQPPSVSVAPGQTARITCGGNNIGSKSVHWYQQKPGQAPVLVVYDDSDRPSGIPERFSGSNSGNTATLTISRVEAGDEADYYCQVWDSSSDQGVFGGGTKLTVL
# notes: as for B1
# B18: FN 8C (antibody, V domains shown)
# VH: QVQLVESGGGVVQPGRSLRLSCAASGFTFSSYGMHWVRQAPGKGLEWVAVISYDGSNKYYADTVKGRFTISRDNSKNTLYLQMNSLRAEDTAVYYCARERTYYDILTGYRHYYGMDVWGQGTTVTVSS
# VL: SYELTQPPSVSVAPGQTARITCGGNNIGSKSVHWYQQKPGQAPVLVVYDDSDRPSGIPERFSGSNSGNTATLTISRVEAGDEADYYCQVWDSSSDHWVFGGGTKLTVL
# notes: as for B1
# B19: FG 12C (antibody, V domains shown)
# VH: EVQLVESGGGLVQPGRSLRLSCAASGFTFDDYAMHWVRQAPGKGLEWVSGISWNSGSIGYADSVKGRFTISRDNAKNSLYLQMNSLRAEDTALYYCAKDMRVHDYGDYYFDYWGQGTLVTVSS
# VL: SYELTQPPSVSVAPGKTARITCGGNNIGSKSVHWYQQKPGQAPVLVIYYDSDRPSGIPERFSGSNSGNTATLTISRVEAGDEADYYCQVWDSSSDHPVFGGGTKLTVL
# notes: as for B1
# B20: EZ 7A (antibody, V domains shown)
# VH: EVQLVESGAEVKKPGESLKISCKGSGYSFTSYWIGWVRQMPGKGLEWMGIIYPGDSDTRYSPSFQGQVTISADKSISTAYLQWSSLKASDTAMYYCARGWVYRGFPYYGMDVWGQGTMVTVSS
# VL: QSALTQPRSVSGSPGQSVTISCTGTSSDVGGYNYVSWYQQHPGKAPKLMIYDVSKRPSGVPDRFSGSKSGNTASLTISGLQAEDEADYYCCSYAGSYTLVFGGGTKLTVL
# notes: as for B1
# B21: FI 1C (antibody, V domains shown)
# VH: EVQLVESGGGLVKPGGSLRLSCAASGFTFSDYYMSWIRQAPGKGLEWVSYISSSGSTIYYADSVKGRFTISRDNAKNSLYLQMNSLRAEDTAVYYCARRSNRFLIAFDIWGQGTMVTVSS
# VL: QSALTQPASVSGSPGQTITISCTGTSSDVGGYNYVSWYQQHPGKAPKLMIYEVSNRPSGVSNRFSGSKSGNTASLTISGLQAEDEADYYCSSYTSSSTLVVFGGGTKLTVP
# notes: as for B1
# B22: FI 3A (antibody, V domains shown)
# VH: EVQLLESGGGLIQPGGSLRLSCAASGFTVSSNYMSWVRQAPGKGLEWVSVIYSGGSTYYADSVKGRFTISRDNSKNTLYLQMNSLRAEDTAVYYCARDHVRPGMNIWGQGTMVTVSS
# VL: not shown
# notes: as for B1
# What was measured:
# [1] = target: T1, SARS-CoV-2 spike receptor-binding domain, recombinant (SARS-CoV-2, reference sequence, UniProt P0DTC2); test: ELISA
# T1 construct: also called RBD; source: bought: Sino Biologicals, baculovirus-insect cells
# [2] = target: T2, SARS-CoV-2 RBD (amino acids 340-538) on MDCK-SIAT1 cells (SARS-CoV-2 (so in the source)); test: flow cytometry on cells; details: one partner purified
# T2 construct: also called MDCK-RBD; source: MDCK-SIAT1, stably transduced (lentiviral vector), on the cell surface
# [3] = target: T3, SARS-CoV-2 NTD on MDCK-SIAT1 cells (SARS-CoV-2 (so in the source)); test: flow cytometry on cells; details: one partner purified
# T3 construct: also called MDCK-NTD
# [4] = target: T4, SARS-CoV-2 spike S2 subunit, recombinant (SARS-CoV-2, reference sequence, UniProt P0DTC2); test: ELISA
# T4 construct: source: bought: Sino Biologicals, baculovirus-insect cells
# [5] = target: SARS-CoV-2 nucleocapsid, recombinant (SARS-CoV-2, reference sequence, UniProt P0DTC9); test: ELISA
Binder,OD450 [1] [OD450],binding result [2],binding result [3],OD450 [4] [OD450],OD450 [5] [OD450]
B1,1.19,binds,,,
B2,1.22,binds,,,
B3,1.12,binds,,,
B4,,no binding,no binding,,
B5,,no binding,no binding,,
B6,1.27,binds,,,
B7,,no binding,no binding,,
B8,1.17,binds,,,
B9,,,,1.05,
B10,,no binding,no binding,1.06,
B11,,no binding,binds,,
B12,,no binding,no binding,,
B13,,no binding,,,
B14,1.18,binds,,,
B15,,,,,1.01
B16,1.33,binds,no binding,,
B17,,,,0.88,
B18,,no binding,no binding,,
B19,,no binding,no binding,,
B20,1.12,binds,,,
B21,1.22,binds,,,
B22,1.12,binds,,,
